Reference: patent US5670477A, “Method to enhance permeability of the blood/brain blood/nerve bariers to therapeutic agents” (Poduslo; Joseph F., priority 1995, dated 1997)
“And” between values parts separate entries of the source, which are not always exact repeats. Identical values can stand only once.

B1: NGF: Ultrapure 2.5S nerve growth factor (printed 2.55 NGF) from Harlan Bioproducts (protein, UniProt P01139 122-241, looked up)
Beta-nerve growth factor: SSTHPVFHMGEFSVCDSVSVWVGDKTTATDIKGKEVTVLAEVNINNSVFRQYFFETKCRASNPVESGCRGIDSKHWNSYCTTTHTFVKALTTDEKQAAWRFIRIDTACVCVLSRKATRRG

Legend:
[1] = plasma half-life from plasma clearance curves after I.V. bolus; conditions: for t1 (plasma half-life): Table 5, n = 6
Method: Animals and Reagents. Male Sprague-Dawley rats (24-weeks-old, 460-500 g) were obtained from Bio Lab (St. Paul) and were used to determine the PS and Vp measurements. All animals were kept for a minimum of 3 days under standard housing conditions and feeding schedules prior to the experiments. […] Insulin (Mr =6000) was obtained as humulin RU-100 from Eli Lily. […] Affinity purified human IgG was obtained from Accurate Chemicals (Mr =150,000). […] Plasma half-lives were determined from plasma clearance curves for all the proteins using the standard exponential decay equation in In Plot Scientific Graphics (Graph Pad Software).
The experimental protocol employed was based on the methods of Ohno et al. Am. […] Over the next 30 or 60 minutes, serial blood samples were collected from the brachial artery to generate a plasma washout curve.

[2] = PS and Vp of the blood-nerve barrier, radioiodinated I.V. bolus; assay type: in vivo, rat (Sprague-Dawley)
Method: (§1) Free radioactive iodine was separated from the radiolabeled conjugates and agents by dialysis against 0.2M NaI.
(§2) After the final blood sample was collected, the animal was sacrificed, the brain and meninges removed, and the brain dissected into the cortex, caudateputamen (neostriatum), hippocampus, thalamus, brain stem, and cerebellum. The sciatic nerve was also rapidly removed and desheathed. Tissue was lyophilized, and dry weights were determined with a microbalance and converted to respective wet weights with wet weightry weight ratios previously determined for the desheathed rat sciatic nerve and the various brain regions. […] Statistical evaluations were performed using the t-test with significance accepted at the P<0.05 level.

[3] = PS and Vp of the blood-brain barrier, radioiodinated I.V. bolus; assay type: in vivo, rat (Sprague-Dawley)
Method: as §1, §2

[4] = isoelectric focusing (Coomassie blue); assay type: physicochemical; conditions: Coomassie blue stain
Method: Protein samples were solubilized in SDS under reducing conditions with 2-mercaptoethanol followed by electrophoresis and staining with Coomassie blue. Pharmacia low molecular weight calibration kit was used for the protein standards. The 40% Bio-Lyte 3/10 ampholyte from Bio-Rad was used for isoelectric focusing with an acrylamide monomer concentration of 25% T and 3% C. Polymerization time was 15 minutes, with 5 minutes allowed for sample diffusion. Electrophoresis time was 45 minutes with increasing voltage to a maximum voltage of 450 volts for the last 15 minutes. IEF standards were obtained from Bio-Rad and contained nine natural proteins with the isoelectic points ranging from 4.45 to 9.6 and were visualized with Coomassie blue.

[5] = system: choline acetyltransferase (ChAT); assay: choline acetyltransferase (ChAT) activity in brain regions after parenteral administration; assay type: in vivo, mouse (BALB/cJ)
Method: Adult BALB/cJ mice were used. The injection site was alternated on a daily basis between I.M. (thigh) and I.V. injection (tail vein), and the vehicle consisted of 1.5 mg/ml of BSA in 0.9% NaCl. The amount of NGF or PUT-NGF injected was 15 μg/day/animal for a duration of 14 days. Three groups of animals (n=7) were injected with either vehicle alone, NGF, and PUT-NGF. At the end of the experiment, the brains were removed and dissected into five regions which included the septum, hippocampus, nucleus basalis (substantia innominata), caudate-putamen (neostriatum), and cortex and stored at -70° C. The septum was dissected from the hippocampus at the fornix and continued into the basal forebrain.
Subsequently, a radiochemical assay using [1-^14 C] acetyl-CoA was performed according to the method of Fonnum. Fonnum, "A rapid radiochemical method for the determination of choline acetyltransferase", J. Neurochem., 24, 407 (1975). Data were expressed as cpm/μg protein and are given as mean ± SEM. Protein concentration was determined by the BCA procedure (Smith et al., "Measurement of protein using bicinchoninic acid", Anal. Biochem., 150, 76 (1985)) with the Pierce assay kit using bovine serum albumin as a standard. Statistical analysis was by the unpaired t-test (two-tailed) with significance accepted as P<0.05.

[6] = 15 μg/day/animal, 14 days, x ± SEM, n = 7

Molecule	PS of the BNB ([2]; nerve / endoneurium)	PS of the BNB ([2]; nerve, x ± SEM)	Vp (residual plasma volume) of the BNB ([2]; nerve, x ± SEM)	PS of the BBB ([3]; brain stem, x ± SEM)	Vp of the BBB ([3]; brain stem, x ± SEM)	PS of the BBB ([3]; caudate-putamen, x ± SEM)	Vp of the BBB ([3]; caudate-putamen, x ± SEM)	PS of the BBB ([3]; cerebellum, x ± SEM)	Vp of the BBB ([3]; cerebellum, x ± SEM)	PS of the BBB ([3]; cortex, x ± SEM)	Vp of the BBB ([3]; cortex, x ± SEM)	Vp of the BBB ([3]; hippocampus, x ± SEM)	PS of the BBB ([3]; thalamus, x ± SEM)	t1 (plasma half-life) ([1]; x ± SEM) [min]	pI (isoelectric point) [4]	PS of the BBB ([3]; hippocampus, x ± SEM)	Vp of the BBB ([3]; thalamus, x ± SEM)	further results
INS: Insulin (Mr =6000) obtained as humulin RU-100 from Eli Lily [reference compound]	3.32e-05 mL/g/s	33.19 ± 2.05 ml/g/sec × 10^6	5.05 ± 0.87 µL/g	22.62 ± 3.35 ml/sec × 10^6	12.35 ± 0.99 µL/g	16.88 ± 1.79 ml/sec × 10^6	6.08 ± 0.30 µL/g	20.12 ± 2.78 ml/sec × 10^6	10.56 ± 0.96 µL/g	15.78 ± 2.45 ml/sec × 10^6	6.44 ± 0.49 µL/g	7.04 ± 0.68 µL/g	18.42 ± 2.41 ml/sec × 10^6					t1/2 (plasma half-life) ([1]; Table 4, x ± SEM, n = 5): 1.18 ± 0.09 min
SOD: superoxide dismutase isolated from bovine erythrocytes, monomeric molecular weight 16,250 daltons	2.24 10^-6 mL/g/sec	1.79 ± 0.12 ml/g/sec × 10^6 and 2.24 ± 0.22 ml/g/sec × 10^6	1.87 ± 0.10 µL/g and 2.63 ± 0.22 µL/g	3.19 ± 0.13 ml/g/sec × 10^6 and 3.13 ± 0.14 ml/g/sec × 10^6	13.77 ± 2.10 µL/g and 16.26 ± 1.22 µL/g	1.52 ± 0.07 ml/g/sec × 10^6 and 1.78 ± 0.11 ml/g/sec × 10^6	5.62 ± 0.23 µL/g and 5.76 ± 0.40 µL/g	2.94 ± 0.14 ml/g/sec × 10^6 and 2.69 ± 0.11 ml/g/sec × 10^6	10.20 ± 0.89 µL/g and 14.61 ± 1.09 µL/g	1.81 ± 0.06 ml/g/sec × 10^6 and 1.80 ± 0.09 ml/g/sec × 10^6	6.13 ± 0.34 µL/g and 5.77 ± 0.34 µL/g	7.94 ± 0.25 µL/g and 7.26 ± 0.77 µL/g	2.61 ± 0.15 ml/g/sec × 10^6 and 2.71 ± 0.20 ml/g/sec × 10^6	3.64 ± 0.21	4.95	1.98 ± 0.08 ml/g/sec × 10^6 and 2.15 ± 0.01 ml/g/sec × 10^6	9.73 ± 0.43 µL/g and 12.83 ± 1.97 µL/g	PS of the BNB ([2]; nerve): 1.79 ± 0.12 10^-6 mL/g/sec; PS of the BNB relative to native albumin ([2]; nerve, albumin compared from Poduslo et al. 1994): approximately 22 fold; PS of the BBB ([3]; brain stem): 3.13e-06 mL/g/s; PS of the BBB relative to native albumin ([3]; brain stem): 54 fold; PS of the BBB ([3]; caudate-putamen): approximately 1.8 ×10^-6 ml/sec; PS of the BBB ([3]; cortex): approximately 1.8 ×10^-6 ml/sec; PS of the BBB relative to native albumin ([3]; cortex): 12 fold
SPD-SOD: SOD modified with spermidine using water-soluble carbodiimide at pH 4.7	2.41e-05 mL/g/s	24.1 ± 1.23 ml/g/sec × 10^6	3.03 ± 0.35 µL/g	36.85 ± 1.70 ml/g/sec × 10^6	13.94 ± 1.29 µL/g	32.65 ± 2.03 ml/g/sec × 10^6	8.23 ± 0.40 µL/g	37.28 ± 1.01 ml/g/sec × 10^6	12.59 ± 0.90 µL/g	25.00 ± 0.90 ml/g/sec × 10^6	7.10 ± 0.31 µL/g	7.73 ± 0.58 µL/g	34.35 ± 1.42 ml/g/sec × 10^6	0.75 ± 0.05		28.75 ± 1.39 ml/g/sec × 10^6	11.23 ± 0.63 µL/g	decrease of plasma half-life versus native protein ([1]; fold less than native protein): 4.9 fold; PS of the BNB, RI vs. native protein ([2]; nerve): 10.8; PS of the BNB, relative increase vs. native protein ([2]; nerve): 10.8 fold; Vp of the BNB, RI vs. native protein ([2]; nerve): 1.2; PS of the BBB, RI vs. native protein ([3]; brain stem): 11.8; Vp of the BBB, RI vs. native protein ([3]; brain stem): 1.0; PS of the BBB, RI vs. native protein ([3]; caudate-putamen): 18.3; Vp of the BBB, RI vs. native protein ([3]; caudate-putamen): 1.4; PS of the BBB, RI vs. native protein ([3]; cerebellum): 13.9; Vp of the BBB, RI vs. native protein ([3]; cerebellum): 1.2; PS of the BBB, RI vs. native protein ([3]; cortex): 13.9; Vp of the BBB, RI vs. native protein ([3]; cortex): 1.2; PS of the BBB, RI vs. native protein ([3]; hippocampus): 13.4; Vp of the BBB, RI vs. native protein ([3]; hippocampus): 1.1; PS of the BBB, RI vs. native protein ([3]; thalamus): 12.7; Vp of the BBB, RI vs. native protein ([3]; thalamus): 1.2
B1		1.74 ± 0.15 ml/g/sec × 10^6	1.53 ± 0.12 µL/g	3.38 ± 0.09 ml/g/sec × 10^6	16.60 ± 1.01 µL/g	1.64 ± 0.04 ml/g/sec × 10^6	5.78 ± 0.42 µL/g	2.93 ± 0.10 ml/g/sec × 10^6	11.54 ± 0.71 µL/g	1.91 ± 0.07 ml/g/sec × 10^6	7.19 ± 0.20 µL/g	8.56 ± 0.21 µL/g	2.79 ± 0.09 ml/g/sec × 10^6		major band with an isoelectric point less than cytochrome c	2.30 ± 0.10 ml/g/sec × 10^6	11.65 ± 0.81 µL/g	ChAT activity, caudate-putamen [5, 6]: 559 ± 47 cpm/μg protein; ChAT activity, cortex [5, 6]: 294 ± 9 cpm/μg protein; ChAT activity, hippocampus [5, 6]: 236 ± 17 cpm/μg protein; ChAT activity, nucleus basalis [5, 6]: 109 ± 15 cpm/μg protein; ChAT activity, septum [5, 6]: 443 ± 65 cpm/μg protein; ChAT activity versus comparator, in words ([5]; NGF vs vehicle: five brain regions, PUT-NGF vs NGF: hippocampus, caudate-putamen, cortex): no significant difference; ChAT activity, NGF vs. Vehicle % Increase ([5]; caudate-putamen): 18.4%; ChAT activity, NGF vs. Vehicle % Increase ([5]; cortex): 4.6%; ChAT activity, NGF vs. Vehicle % Increase ([5]; hippocampus): 0.4%; ChAT activity, NGF vs. Vehicle % Increase ([5]; nucleus basalis): 12.4%; ChAT activity, NGF vs. Vehicle % Increase ([5]; septum): 0.2%
